# From US20240336686A1 (ELPISCIENCE SUZHOU BIOPHARMA, published 2024)
# T1: human Claudin18.2 protein (Octet assay) (human, UniProt P56856-2 1-261, limits assumed)
# T1 construct: UniProt P56856 isoform A2 corresponds to Claudin18.2; also called CLDN18.2
# T1 sequence (looked up): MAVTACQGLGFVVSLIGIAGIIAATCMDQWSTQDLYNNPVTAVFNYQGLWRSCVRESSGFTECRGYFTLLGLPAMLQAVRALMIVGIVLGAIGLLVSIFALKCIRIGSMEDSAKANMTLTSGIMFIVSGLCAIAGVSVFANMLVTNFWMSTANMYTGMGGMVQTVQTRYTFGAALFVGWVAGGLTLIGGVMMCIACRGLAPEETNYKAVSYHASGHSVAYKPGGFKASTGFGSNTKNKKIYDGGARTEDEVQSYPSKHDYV
# Key:
# [1] = molecular target: human PDL1 protein (Octet assay) (human, UniProt Q9NZQ7 19-238); assay: Octet; antibody on sensor, PDL1 protein in solution
# Description: (§1) The Anti-PDL1/SIRPα bispecific protein were characterized for binding affinity against human PDL1 using Octet assay (ForeBio) according to manufacturer's manual, separately. Briefly, the antibodies were coupled on sensors and then the sensors were dipped into PDL1 protein gradients (start at 200 nM, with 2-fold dilution and totally 8 doses). Their binding responses were measured in real-time and results were fit globally.
# [2] = molecular target: T1, human Claudin18.2 protein (Octet assay); assay: Octet; antibody on sensor, Claudin18.2 protein in solution
# Description: as §1, with “Anti-Claudin18.2/SIRPα” for “Anti-PDL1/SIRPα”, “Claudin18.2 or SIRPα” for “PDL1”
# [3] = molecular target: Full length human SIRPα v1 with beta-gal fragment (ED) at its C-terminal, in K562 cells (human, UniProt P78324 31-504); assay: cell-based or functional assay
# [4] = molecular target: T2, human SIRPα v1 on CHOK1 cells (human, UniProt P78324 31-504); assay: FACS, CHOK1 cells stably expressing human SIRPα v1
# T2 construct: whole, on cells; also called CHOK1-hSIRPα v1; cell surface human SIRPα v1
# [5] = molecular target: T3, human SIRPα v2 on CHOK1 cells (human, UniProt P78324 31-504); assay: FACS, CHOK1 cells stably expressing human SIRPα v2
# T3 construct: whole, on cells; also called CHOK1-hSIRPα v2; cell surface human SIRPα v2
# [6] = molecular target: T4, human SIRPα v1 ECD recombinant protein (human, UniProt P78324 31-373); assay: competitive ELISA, plate-coated human SIRPα v1 ECD; blocked ligand: mFc tagged human CD47 ECD
# T4 construct: extracellular domain; Coated on the ELISA plate
# Description: (§2) Competitive ELISA assay was used to determine whether the purified chimeric antibodies can block CD47 and SIRPα interaction. Briefly, antibody and mFc tagged human CD47 ECD recombinant protein were co-incubated with ELISA microplate coated human SIRPα v1 ECD or human SIRPα v2 ECD recombinant protein. The concentration of soluble ECD of CD47 is 25 nM, and the concentration of soluble ECD of SIRPα is 20 nM. After washing, HRP labeled anti-mouse Fc 2nd antibody (Sigma) was added and incubated at 37° C. for 1 hour. Then, 100 μl/well of TMB solution (Biotechnology) was added. After incubation for 15 minutes at room temperature, the reaction was stopped by the addition of 50 μl of 1N HCl. OD 450 nm was read. Blocking ratio was determined by blockade of human SIRPα ECD recombinant protein binding to ELISA microplate coated human CD47 ECD recombinant protein. All antibodies as tested can block interaction between human CD47 and different human SIRPα variants.
# (§3) The humanized antibodies were tested for the ability to block CD47 and SIRPα interaction with competitive ELISA assay (refer to methods described above).
# [7] = molecular target: T5, human SIRPα v2 ECD recombinant protein (human); assay: competitive ELISA, plate-coated human SIRPα v2 ECD; blocked ligand: mFc tagged human CD47 ECD
# T5 construct: extracellular domain; Coated on the ELISA plate
# Description: as §2, §3
# Chain of human PDL1 protein (Octet assay) (Q9NZQ7 19-238 limits assumed): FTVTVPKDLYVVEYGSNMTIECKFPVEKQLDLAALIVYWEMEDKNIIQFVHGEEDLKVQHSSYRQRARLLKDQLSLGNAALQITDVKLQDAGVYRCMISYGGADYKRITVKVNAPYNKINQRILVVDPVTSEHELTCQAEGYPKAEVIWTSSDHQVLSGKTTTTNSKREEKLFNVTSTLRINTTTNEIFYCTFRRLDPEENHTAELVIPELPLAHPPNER
# T3 sequence (P78324 other isoform, or with tags, fused parts or gaps limits assumed): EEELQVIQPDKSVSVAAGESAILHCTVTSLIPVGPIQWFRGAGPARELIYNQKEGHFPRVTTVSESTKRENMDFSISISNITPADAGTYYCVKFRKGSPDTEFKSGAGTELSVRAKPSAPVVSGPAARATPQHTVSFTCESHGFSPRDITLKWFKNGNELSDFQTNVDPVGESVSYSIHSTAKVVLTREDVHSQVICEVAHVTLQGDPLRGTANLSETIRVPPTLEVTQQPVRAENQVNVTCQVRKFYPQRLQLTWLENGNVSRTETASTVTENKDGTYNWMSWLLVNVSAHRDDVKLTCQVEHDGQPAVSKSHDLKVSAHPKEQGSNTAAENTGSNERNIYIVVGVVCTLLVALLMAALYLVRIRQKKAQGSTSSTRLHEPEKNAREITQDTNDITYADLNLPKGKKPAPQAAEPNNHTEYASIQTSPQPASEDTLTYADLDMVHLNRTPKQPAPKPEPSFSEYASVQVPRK
# T4 sequence (P78324 31-373): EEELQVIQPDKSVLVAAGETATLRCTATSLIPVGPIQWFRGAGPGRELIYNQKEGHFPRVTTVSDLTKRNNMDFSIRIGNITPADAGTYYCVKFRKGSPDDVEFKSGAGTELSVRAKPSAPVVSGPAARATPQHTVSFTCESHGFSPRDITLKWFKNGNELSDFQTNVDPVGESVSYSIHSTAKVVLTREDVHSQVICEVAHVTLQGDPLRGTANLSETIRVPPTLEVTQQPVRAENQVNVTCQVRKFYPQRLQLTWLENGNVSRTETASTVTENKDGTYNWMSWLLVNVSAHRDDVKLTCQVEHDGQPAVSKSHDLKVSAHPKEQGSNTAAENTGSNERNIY
# Chain of Full length human SIRPα v1 with beta-gal fragment (ED) at its C-terminal, in K562 cells (P78324 31-504): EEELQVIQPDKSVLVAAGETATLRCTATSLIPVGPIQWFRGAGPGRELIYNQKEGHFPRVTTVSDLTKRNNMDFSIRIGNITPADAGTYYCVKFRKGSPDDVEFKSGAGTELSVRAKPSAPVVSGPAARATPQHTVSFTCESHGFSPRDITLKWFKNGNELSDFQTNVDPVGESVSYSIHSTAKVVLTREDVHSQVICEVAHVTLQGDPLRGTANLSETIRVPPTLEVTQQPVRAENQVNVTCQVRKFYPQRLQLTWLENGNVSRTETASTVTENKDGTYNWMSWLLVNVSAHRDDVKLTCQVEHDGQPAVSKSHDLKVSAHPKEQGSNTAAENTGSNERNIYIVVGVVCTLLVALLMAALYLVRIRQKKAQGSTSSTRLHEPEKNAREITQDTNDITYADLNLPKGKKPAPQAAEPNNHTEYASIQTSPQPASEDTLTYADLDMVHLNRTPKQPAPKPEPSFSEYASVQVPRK
# T2 sequence (P78324 31-504): as above
Binder,Kd [1],koff [1],kon [1],Kd [2],koff [2],kon [2],further results
"Anti-PDL1 antibody C570 (antibody, V domains shown, Heavy chain antibody; also called Anti-PDL1, C570) VH: EVQLVESGGGLVQAGGSLRLSCAASGFTFSSHAMSWVRQAPGKGLEWVSDIDTSGTTTDYADSVKGRFTISRDNAKNTLYLQMNSLKPEDTAVYYCAKGPREATDIRSWGQGTQVTVSS",0.374 nM,0.000306 s⁻¹,819000 M⁻¹ s⁻¹,–,–,–,–
"Anti-PDL1 antibody 570h3 (antibody, V domains shown, Humanized heavy chain antibody; also called Anti-PDL1, 570h3) VH: EVQLVESGGGLVQPGGSLRLSCAASGFTFSSHAMSWVRQAPGKGLEWVSDIDTSGTTTDYADSVKGRFTISRDNSKNTLYLQMNSLRAEDTAVYYCAKGPREATDIRSWGQGTTVTVSS",0.198 nM,9.29e-05 s⁻¹,470000 M⁻¹ s⁻¹,–,–,–,–
"Anti-Claudin18.2 antibody hu28.H1L2 (antibody, V domains shown, Humanized monoclonal antibody; also called Anti-Claudin18.2, hu28.H1L2) VH: QVQLVQSGAEVKKPGASVKVSCKASGYTFTNWVHWVRQAPGQGLEWMGEINPTNARSNYNEKFKKRVTMTRDTSTSTVYMELSSLRSEDTAVYYCARIYYGNSFAHWGQGTLVTVSS VL: DIVMTQSPDSLAVSLGERATINCKSSQSLLNAGNQKNYLTWYQQKPGQPPKLLIYWSSTRESGVPDRFSGSGSGTDFTLTISSLQAEDVAVYHCQNNYYYPLTFGGGTKLEIK",–,–,–,< 0.001 nM,< 1e-07 s⁻¹,95800 M⁻¹ s⁻¹,–
"Anti-Claudin18.2/SIRPα bispecific antibody ES028-005 (bispecific antibody, not shown: CL; CH1-Fc) light: DIVMTQSPDSLAVSLGERATINCKSSQSLLNAGNQKNYLTWYQQKPGQPPKLLIYWSSTRESGVPDRFSGSGSGTDFTLTISSLQAEDVAVYHCQNNYYYPLTFGGGTKLEIK heavy (part 1 of 2): QVQLVQSGAEVKKPGASVKVSCKASGYTFTNWVHWVRQAPGQGLEWMGEINPTNARSNYNEKFKKRVTMTRDTSTSTVYMELSSLRSEDTAVYYCARIYYGNSFAHWGQGTLVTVSS heavy (part 2 of 2): GGGGSGGGGSGGGGSQIVLTQSPAIMSASPGEKVTLTCSASSSVSSSYLYWYQQKPGSSPKLWIYSTSNLASGVPARFSGSGSGTSYSLTISSMEAEDAASYFCHQWSSYPYTFGGGTKLEIKGGGGSGGGGSGGGGSGGGGSEVQLQQSGAELVKPGASVKLSCTASGFNIKDYYMHWVKQRTEQGLEWIGRIDPEDGETKYAPKFQGKATITADTSSNTAYLQLSSLTSEDTAVYYCDRGLAYWGQGTLVTVSA",–,–,–,< 0.001 nM,< 1e-07 s⁻¹,106000 M⁻¹ s⁻¹,–
"Anti-Claudin18.2/SIRPα bispecific antibody ES028-001 (bispecific antibody, not shown: CL; CH1-Fc) light (part 1 of 2): DIVMTQSPDSLAVSLGERATINCKSSQSLLNAGNQKNYLTWYQQKPGQPPKLLIYWSSTRESGVPDRFSGSGSGTDFTLTISSLQAEDVAVYHCQNNYYYPLTFGGGTKLEIK light (part 2 of 2): GGGGSGGGGSGGGGSQIVLTQSPAIMSASPGEKVTLTCSASSSVSSSYLYWYQQKPGSSPKLWIYSTSNLASGVPARFSGSGSGTSYSLTISSMEAEDAASYFCHQWSSYPYTFGGGTKLEIKGGGGSGGGGSGGGGSGGGGSEVQLQQSGAELVKPGASVKLSCTASGFNIKDYYMHWVKQRTEQGLEWIGRIDPEDGETKYAPKFQGKATITADTSSNTAYLQLSSLTSEDTAVYYCDRGLAYWGQGTLVTVSA heavy: QVQLVQSGAEVKKPGASVKVSCKASGYTFTNWVHWVRQAPGQGLEWMGEINPTNARSNYNEKFKKRVTMTRDTSTSTVYMELSSLRSEDTAVYYCARIYYGNSFAHWGQGTLVTVSS",–,–,–,< 0.001 nM,< 1e-07 s⁻¹,105000 M⁻¹ s⁻¹,–
"Anti-Claudin18.2/SIRPα bispecific antibody ES028-009 (bispecific antibody, not shown: CL; CH1-Fc) light (part 1 of 2): QIVLTQSPAIMSASPGEKVTLTCSASSSVSSSYLYWYQQKPGSSPKLWIYSTSNLASGVPARFSGSGSGTSYSLTISSMEAEDAASYFCHQWSSYPYTFGGGTKLEIK light (part 2 of 2): GGGGSGGGGSGGGGSDIVMTQSPDSLAVSLGERATINCKSSQSLLNAGNQKNYLTWYQQKPGQPPKLLIYWSSTRESGVPDRFSGSGSGTDFTLTISSLQAEDVAVYHCQNNYYYPLTFGGGTKLEIKGGGGSGGGGSGGGGSGGGGSQVQLVQSGAEVKKPGASVKVSCKASGYTFTNWVHWVRQAPGQGLEWMGEINPTNARSNYNEKFKKRVTMTRDTSTSTVYMELSSLRSEDTAVYYCARIYYGNSFAHWGQGTLVTVSS heavy: EVQLQQSGAELVKPGASVKLSCTASGFNIKDYYMHWVKQRTEQGLEWIGRIDPEDGETKYAPKFQGKATITADTSSNTAYLQLSSLTSEDTAVYYCDRGLAYWGQGTLVTVSA",–,–,–,< 0.001 nM,< 1e-07 s⁻¹,21100 M⁻¹ s⁻¹,–
"Anti-PDL1/SIRPα bispecific antibody ES019-079 (bispecific antibody, not shown: CL; linker and Fc; CH1) light: QIVLTQSPAIMSASPGEKVTLTCSASSSVSSSYLYWYQQKPGSSPKLWIYSTSNLASGVPARFSGSGSGTSYSLTISSMEAEDAASYFCHQWSSYPYTFGGGTKLEIK heavy (part 1 of 2): EVQLVESGGGLVQAGGSLRLSCAASGFTFSSHAMSWVRQAPGKGLEWVSDIDTSGTTTDYADSVKGRFTISRDNAKNTLYLQMNSLKPEDTAVYYCAKGPREATDIRSWGQGTQVTVSS heavy (part 2 of 2): GGGGSGGGGSGGGGSEVQLQQSGAELVKPGASVKLSCTASGFNIKDYYMHWVKQRTEQGLEWIGRIDPEDGETKYAPKFQGKATITADTSSNTAYLQLSSLTSEDTAVYYCDRGLAYWGQGTLVTVSA",0.0485 nM,2.85e-05 s⁻¹,588000 M⁻¹ s⁻¹,–,–,–,–
Anti-PDL1/SIRPα bispecific antibody ES019-029 (bispecific antibody) chain 1: EVQVVESGGGLVQSGGSLKLSCAGSGFTESAGFMVWHRQVPGKERELVALIATPSGSTNYADSVKGRFTISRDNGKNTVYLQMNSLKPEDTAVYYCNIRGYWGQGTLVTVSS chain 2: EVQLQQSGAELVKPGASVKLSCTASGFNIKDYYMHWVKQRTEQGLEWIGRIDPEDGETKYAPKFQGKATITADTSSNTAYLQLSSLTSEDTAVYYCDRGLAYWGQGTLVTVSA chain 3: QIVLTQSPAIMSASPGEKVTLTCSASSSVSSSYLYWYQQKPGSSPKLWIYSTSNLASGVPARFSGSGSGTSYSLTISSMEAEDAASYFCHQWSSYPYTFGGGTKLEIK,1.23 nM,0.00136 s⁻¹,1.11e+06 M⁻¹ s⁻¹,–,–,–,–
"Anti-PDL1/SIRPα bispecific antibody ES019-025 (bispecific antibody, not shown: CL; linker; CH1-Fc) light: QIVLTQSPAIMSASPGEKVTLTCSASSSVSSSYLYWYQQKPGSSPKLWIYSTSNLASGVPARFSGSGSGTSYSLTISSMEAEDAASYFCHQWSSYPYTFGGGTKLEIK heavy (part 1 of 2): EVQVVESGGGLVQSGGSLKLSCAGSGFTESAGFMVWHRQVPGKERELVALIATPSGSTNYADSVKGRFTISRDNGKNTVYLQMNSLKPEDTAVYYCNIRGYWGQGTLVTVSS heavy (part 2 of 2): EVQLQQSGAELVKPGASVKLSCTASGFNIKDYYMHWVKQRTEQGLEWIGRIDPEDGETKYAPKFQGKATITADTSSNTAYLQLSSLTSEDTAVYYCDRGLAYWGQGTLVTVSA",3.81 nM,0.00604 s⁻¹,1.58e+06 M⁻¹ s⁻¹,–,–,–,–
"Humanized anti-SIRPα antibody hu025.033 (antibody, V domains shown, Humanized from C25) VH: EVQLVQSGAEVKKPGATVKISCKVSGFNIKDYYMHWVQQAPGKGLEWIGRIDPEDAETKYAPKFQGRVTITADTSTDTAYMELSSLRSEDTAVYYCDRGLAYWGQGTLVTVSS VL: EIVLTQSPATLSLSPGERATLSCSASSSVSSSYLYWYQQKPGQAPKLWIYSTSNLASGIPARFSGSGSGTDYTLTISSLEPEDFAVYYCHQWSSYPYTFGQGTKLEIK",–,–,–,–,–,–,IC50 (SHP-1 recruitment blocking) [3]: 0.19 nM; TOP blocking (SHP-1 recruitment) [3]: 84.5%; EC50 [4]: 0.99 nM; TOP MFI [4]: 53800 MFI; EC50 [5]: 0.62 nM; TOP MFI [5]: 39800 MFI; IC50 [6]: 2.22 nM; TOP blocking [6]: 97.2%; IC50 [7]: 1.88 nM; TOP blocking [7]: 98.3%
"Anti-Claudin18.2 antibody hu26.H1L2 (S92A) (antibody, V domains shown, Humanized monoclonal antibody; also called Anti-Claudin18.2, hu26.H1L2 (S92A)) VH: EVQLLESGGGLVQPGGSLRLSCAASGFTLSSYALSWVRQAPGKGLEWVSYISNLGGSTFYPDTVKGRFTISRDNSKNTLYLQMNSLRAEDTAVYYCAKHLYNYDAFASWGQGTLVTVSS VL: DIQLTQSPSFLSASVGDRVTITCRASSSVNYIHWYQQKPGKAPKALIYATSNLASGVPSRFSGSGSGTEYTLTISSLQPEDFATYYCQQWNANPLTFGQGTKLEIK",–,–,–,1.81 nM,6.25e-05 s⁻¹,34500 M⁻¹ s⁻¹,–
